B1: Synaptotagmin-2 (Rattus norvegicus (Rat)), P29101 (parent)
chain: MRNIFKRNQEPIVAPATTTATMPLAPAAPADNSTESTGTGESQEDMFAKLKDKFFNEINKIPLPPWALIAMAVVAGLLLLTCCFCICKKCCCKKKKNKKEKGKGMKNAMNMKDMKGGQDDDDAETGLTEGEGEGEEEKEPENLGKLQFSLDYDFQANQLTVGVLQAAELPALDMGGTSDPYVKVFLLPDKKKKYETKVHRKTLNPAFNETFTFKVPYQELGGKTLVMAIYDFDRFSKHDIIGEVKVPMNTVDLGQPIEEWRDLQGGEKEEPEKLGDICTSLRYVPTAGKLTVCILEAKNLKKMDVGGLSDPYVKIHLMQNGKRLKKKKTTVKKKTLNPYFNESFSFEIPFEQIQKVQVVVTVLDYDKLGKNEAIGKIFVGSNATGTELRHWSDMLANPRRPIAQWHSLKPEEEVDALLGKNK

Variants of: B1
Conditions: with wnk1_rat Wnk1, Q9JIH7
wnk1_rat Wnk1, Q9JIH7, sequence (Q9JIH7 whole entry): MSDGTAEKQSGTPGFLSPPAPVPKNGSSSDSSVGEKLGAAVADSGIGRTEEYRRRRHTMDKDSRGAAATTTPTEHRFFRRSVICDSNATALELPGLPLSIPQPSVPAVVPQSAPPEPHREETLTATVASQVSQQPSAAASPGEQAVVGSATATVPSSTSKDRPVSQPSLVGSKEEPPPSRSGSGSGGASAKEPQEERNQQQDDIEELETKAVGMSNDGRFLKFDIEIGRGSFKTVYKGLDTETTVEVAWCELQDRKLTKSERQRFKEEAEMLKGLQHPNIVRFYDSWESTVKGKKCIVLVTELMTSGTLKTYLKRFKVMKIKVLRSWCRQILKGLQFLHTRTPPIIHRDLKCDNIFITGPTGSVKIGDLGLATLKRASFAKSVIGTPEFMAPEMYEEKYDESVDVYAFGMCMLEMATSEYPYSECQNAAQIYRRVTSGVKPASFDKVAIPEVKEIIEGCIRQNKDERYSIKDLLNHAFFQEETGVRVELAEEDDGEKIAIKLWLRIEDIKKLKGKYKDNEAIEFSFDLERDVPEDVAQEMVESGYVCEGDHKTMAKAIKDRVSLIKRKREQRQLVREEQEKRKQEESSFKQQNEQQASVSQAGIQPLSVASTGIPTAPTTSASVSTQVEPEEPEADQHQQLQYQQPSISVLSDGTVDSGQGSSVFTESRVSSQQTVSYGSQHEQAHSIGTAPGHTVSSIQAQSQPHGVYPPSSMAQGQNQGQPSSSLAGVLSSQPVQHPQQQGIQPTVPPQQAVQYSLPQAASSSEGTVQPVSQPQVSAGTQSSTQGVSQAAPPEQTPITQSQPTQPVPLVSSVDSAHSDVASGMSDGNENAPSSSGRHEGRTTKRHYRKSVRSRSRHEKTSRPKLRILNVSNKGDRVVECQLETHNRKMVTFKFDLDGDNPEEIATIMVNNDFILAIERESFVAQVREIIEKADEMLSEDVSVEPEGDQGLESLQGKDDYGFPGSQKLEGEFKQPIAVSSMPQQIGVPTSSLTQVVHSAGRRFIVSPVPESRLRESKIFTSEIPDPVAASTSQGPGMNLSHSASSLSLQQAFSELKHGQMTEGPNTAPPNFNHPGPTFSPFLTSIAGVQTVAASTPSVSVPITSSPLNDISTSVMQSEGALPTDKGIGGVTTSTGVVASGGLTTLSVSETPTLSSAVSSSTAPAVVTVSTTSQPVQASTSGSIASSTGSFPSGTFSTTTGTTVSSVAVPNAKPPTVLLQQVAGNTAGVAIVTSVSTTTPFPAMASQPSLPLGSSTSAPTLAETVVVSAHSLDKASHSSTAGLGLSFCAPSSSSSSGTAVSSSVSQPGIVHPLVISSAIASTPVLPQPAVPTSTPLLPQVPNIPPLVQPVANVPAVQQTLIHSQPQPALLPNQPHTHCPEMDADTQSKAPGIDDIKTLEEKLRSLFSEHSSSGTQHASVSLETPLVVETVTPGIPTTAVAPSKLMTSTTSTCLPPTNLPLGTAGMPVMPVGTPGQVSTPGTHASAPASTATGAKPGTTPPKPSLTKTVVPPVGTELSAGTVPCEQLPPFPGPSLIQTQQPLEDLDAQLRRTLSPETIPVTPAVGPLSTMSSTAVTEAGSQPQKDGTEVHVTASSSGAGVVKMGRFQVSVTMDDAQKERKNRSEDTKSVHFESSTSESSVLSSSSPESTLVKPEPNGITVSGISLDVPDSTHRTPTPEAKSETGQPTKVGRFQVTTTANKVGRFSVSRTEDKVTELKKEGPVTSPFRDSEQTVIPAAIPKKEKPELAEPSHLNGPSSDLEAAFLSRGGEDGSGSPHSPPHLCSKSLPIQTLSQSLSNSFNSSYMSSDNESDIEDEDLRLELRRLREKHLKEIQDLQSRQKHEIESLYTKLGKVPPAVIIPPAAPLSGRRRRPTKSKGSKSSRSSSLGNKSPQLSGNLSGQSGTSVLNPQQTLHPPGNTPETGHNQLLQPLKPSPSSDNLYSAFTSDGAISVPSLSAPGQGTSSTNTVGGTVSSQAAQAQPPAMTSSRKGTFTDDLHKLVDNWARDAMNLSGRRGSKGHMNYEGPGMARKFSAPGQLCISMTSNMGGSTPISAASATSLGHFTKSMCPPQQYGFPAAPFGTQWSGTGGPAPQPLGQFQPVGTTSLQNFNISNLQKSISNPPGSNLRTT

| Variant | effect of a mutation on the interaction |
| --- | --- |
| MRNIFKRNQEPIVAPATTTATMPLAPAAPADNSTESTGTGESQEDMFAKLKDKFFNEINKIPLPPWALIAMAVVAGLLLLTCCFCICKKCCCKKKKNKKEKGKGMKNAMNMKDMKGGQDDDDAETGLTEGEGEGEEEKEPENLGKLQFSLDYDFQANQLTVGVLQAAELPALDMGGTSDPYVKVFLLPDKKKKYETKVHRKTLNPAFNETFTFKVPYQELGGKTLVMAIYSFDRFSKHDIIGEVKVPMNTVDLGQPIEEWRDLQGGEKEEPEKLGDICTSLRYVPTAGKLTVCILEAKNLKKMDVGGLSDPYVKIHLMQNGKRLKKKKTTVKKKTLNPYFNESFSFEIPFEQIQKVQVVVTVLDYDKLGKNEAIGKIFVGSNATGTELRHWSDMLANPRRPIAQWHSLKPEEEVDALLGKNK [D231S] | decreasing interaction |

Variants of: B1
Conditions: with wnk1_rat Wnk1, Q9JIH7
Remark: another data set of the same source

| Variant | effect of a mutation on the interaction |
| --- | --- |
| MRNIFKRNQEPIVAPATTTATMPLAPAAPADNSTESTGTGESQEDMFAKLKDKFFNEINKIPLPPWALIAMAVVAGLLLLTCCFCICKKCCCKKKKNKKEKGKGMKNAMNMKDMKGGQDDDDAETGLTEGEGEGEEEKEPENLGKLQFSLDYDFQANQLTVGVLQAAELPALDMGGTSDPYVKVFLLPDKKKKYETKVHRKTLNPAFNETFTFKVPYQELGGKTLVMAIYDFDRFSKHDIIGEVKVPMNTVDLGQPIEEWRDLQGGEKEEPEKLGDICTSLRYVPTAGKLTVCILEAKNLKKMDVGGLSNPYVKIHLMQNGKRLKKKKTTVKKKTLNPYFNESFSFEIPFEQIQKVQVVVTVLDYDKLGKNEAIGKIFVGSNATGTELRHWSDMLANPRRPIAQWHSLKPEEEVDALLGKNK [D310N] | decreasing interaction |
